Measurements as given in paper PMC4671958, “Structure of the Helicase Domain of DNA Polymerase Theta Reveals a Possible Role in the Microhomology-Mediated End-Joining Pathway”.

Biological target: Polθ-HLD (DNA polymerase theta helicase domain) (Homo sapiens, UniProt O75417 67-894)
Assay: fluorescence polarization; low salt, 50 mM NaCl; stated as single digit nM; 10 mM HEPES pH 7.5, 150 mM NaCl (low salt: 50 mM NaCl), 10 nM probe; temperature not stated in material
Conditions: protein: recombinant; tags: His6 tag cleaved with TEV; chain copies: 4; label: 5' fluorescein (FITC); single strand

Chain of Polθ-HLD (DNA polymerase theta helicase domain) (O75417 67-894): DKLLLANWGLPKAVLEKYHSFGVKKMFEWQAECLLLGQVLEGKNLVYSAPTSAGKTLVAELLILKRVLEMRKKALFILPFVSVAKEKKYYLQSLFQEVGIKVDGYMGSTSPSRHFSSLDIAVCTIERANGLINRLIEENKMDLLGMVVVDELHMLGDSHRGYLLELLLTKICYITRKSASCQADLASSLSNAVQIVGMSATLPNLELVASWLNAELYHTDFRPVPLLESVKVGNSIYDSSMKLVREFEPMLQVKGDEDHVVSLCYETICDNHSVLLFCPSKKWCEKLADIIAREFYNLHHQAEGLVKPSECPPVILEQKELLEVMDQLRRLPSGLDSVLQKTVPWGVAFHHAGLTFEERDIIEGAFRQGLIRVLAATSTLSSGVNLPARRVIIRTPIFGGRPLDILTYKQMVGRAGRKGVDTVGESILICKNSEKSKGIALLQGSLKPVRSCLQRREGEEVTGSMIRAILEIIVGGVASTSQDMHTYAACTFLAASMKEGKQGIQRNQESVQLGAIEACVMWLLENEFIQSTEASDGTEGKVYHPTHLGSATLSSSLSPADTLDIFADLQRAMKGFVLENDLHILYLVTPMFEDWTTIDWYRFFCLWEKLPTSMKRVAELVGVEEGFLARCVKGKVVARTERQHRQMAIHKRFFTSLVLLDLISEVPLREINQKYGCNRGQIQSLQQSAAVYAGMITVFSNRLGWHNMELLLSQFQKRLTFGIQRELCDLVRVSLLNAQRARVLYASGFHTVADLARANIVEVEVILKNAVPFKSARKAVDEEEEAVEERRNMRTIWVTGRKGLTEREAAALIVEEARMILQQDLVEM

B1: Single stranded (POLQ-1) (ssDNA)
DNA: ATCGATAGTCGGATCCTCTAGACAGCTCCATGTAGCAAGGCACTGGTAGAATTCGGCAGCGTC
Kd: < 10 nM
